Measurements published in PMC6932757, “Inhibition of FLT1 ameliorates muscular dystrophy phenotype by increased vasculature in a mouse model of Duchenne muscular dystrophy” (PLoS Genetics, 2019).

Target: T1, mouse FLT1-FC chimeric protein with His-tag (mouse, UniProt P35969 23-759)
T1 construct: FLT1 (VEGF receptor-1, VEGFR1), mouse, soluble form fused to FC; also called chimeric FLT1-FC; mouse soluble FLT1-FC chimeric protein; source: bought: R&D Systems (471-F1-100)
T1 sequence (looked up): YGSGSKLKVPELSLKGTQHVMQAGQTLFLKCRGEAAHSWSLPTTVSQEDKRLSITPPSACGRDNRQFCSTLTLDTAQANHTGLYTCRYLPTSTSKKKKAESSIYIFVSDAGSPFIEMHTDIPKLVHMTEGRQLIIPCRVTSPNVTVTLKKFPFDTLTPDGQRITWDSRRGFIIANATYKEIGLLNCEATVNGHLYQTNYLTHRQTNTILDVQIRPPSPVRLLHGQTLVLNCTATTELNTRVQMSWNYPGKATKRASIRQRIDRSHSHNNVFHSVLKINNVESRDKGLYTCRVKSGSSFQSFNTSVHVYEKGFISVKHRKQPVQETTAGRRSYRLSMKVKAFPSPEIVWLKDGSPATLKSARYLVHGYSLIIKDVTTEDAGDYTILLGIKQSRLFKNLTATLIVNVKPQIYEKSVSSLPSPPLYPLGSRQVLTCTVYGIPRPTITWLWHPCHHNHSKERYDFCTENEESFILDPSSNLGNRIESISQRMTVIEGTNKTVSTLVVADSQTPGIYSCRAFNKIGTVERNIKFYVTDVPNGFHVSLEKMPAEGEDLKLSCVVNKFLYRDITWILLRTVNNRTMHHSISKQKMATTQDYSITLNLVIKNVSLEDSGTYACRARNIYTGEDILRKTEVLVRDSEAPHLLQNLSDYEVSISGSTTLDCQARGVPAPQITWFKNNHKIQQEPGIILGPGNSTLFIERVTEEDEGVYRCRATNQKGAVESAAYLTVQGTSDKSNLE
Test: ELISA; mouse FLT1-FC (His-tag) coated on 96 well plates, blocked with 5% BSA; anti-FLT1 antibodies incubated, then mouse PlGF2; detected with biotin-conjugated anti-PlGF2 antibody and Streptavidin-HRP, TMB, 450 nm
Settings: both partners purified

B1: recombinant mouse PlGF2 (ligand, UniProt P49764 19-158, looked up)
chain: VHSQGALSAGNNSTEVEVVPFNEVWGRSYCRPMEKLVYILDEYPDEVSHIFSPSCVLLSRCSGCCGDEGLHCVPIKTANITMQILKIPPNRDPHFYVEMTFSQDVLCECRPILETTKAERRKTKGKRKRSRNSQTEEPHP
notes: Placenta growth factor 2 (PlGF2), mouse, recombinant; probably the mature secreted protein (surmised); source: bought: R&D Systems (465-PL-010/CF)
B1: binds.
